Test results taken from patent publication US20250264483A1, “IDENTIFICATION OF PROTHROMBOTIC CONDITIONS” (Sydney Local Health District, priority 2020, published 2025).

Test system: healthy donor platelets
Assay: Procoagulant platelet flow cytometry assay, healthy donor whole blood with VITT patient plasma
Type: cell-based, human
Details: exogenous purified human PF4 25 μg/mL, VITT positive (n=6) and negative (n=8) cases (FIG. 12A)

B1: PF4: native human PF4 purified from expired platelet concentrate (protein, UniProt P02776 32-101, looked up)
Platelet factor 4: EAEEDGDLQCLCVKTTSQVRPRHITSLEVIKAGPHCPTAQLIATLKNGRKICLDLQAPLYKKIIKKLLES
How did the “effect on flow cytometry assay results” value turn out when B1 was run?
The value was “did not alter the results”.
